The text below walks through data of patent US20060099650A1 (UNIVERSITY OF MASSACHUSETTS, published 2006).

For the assay, the target named is T1, TLR4:Fc fusion protein (UniProt O00206 24-631).
T1 construct: The composition is not described beyond 'the related TLR4:Fc'; also called the TLR4 fusion protein; not shown: Fc part; not described for TLR4:Fc (only 'related' to TLR2:Fc, which carries mouse IgG2a Fc)
Briefly: ELISA, Fc fusion plated on plastic, biotinylated ligand as probe, anti-biotin-HRP detection. For orientation: An ELISA detects its analyte on a solid surface through an enzyme-linked reagent.

T1 sequence (O00206 24-631 limits assumed): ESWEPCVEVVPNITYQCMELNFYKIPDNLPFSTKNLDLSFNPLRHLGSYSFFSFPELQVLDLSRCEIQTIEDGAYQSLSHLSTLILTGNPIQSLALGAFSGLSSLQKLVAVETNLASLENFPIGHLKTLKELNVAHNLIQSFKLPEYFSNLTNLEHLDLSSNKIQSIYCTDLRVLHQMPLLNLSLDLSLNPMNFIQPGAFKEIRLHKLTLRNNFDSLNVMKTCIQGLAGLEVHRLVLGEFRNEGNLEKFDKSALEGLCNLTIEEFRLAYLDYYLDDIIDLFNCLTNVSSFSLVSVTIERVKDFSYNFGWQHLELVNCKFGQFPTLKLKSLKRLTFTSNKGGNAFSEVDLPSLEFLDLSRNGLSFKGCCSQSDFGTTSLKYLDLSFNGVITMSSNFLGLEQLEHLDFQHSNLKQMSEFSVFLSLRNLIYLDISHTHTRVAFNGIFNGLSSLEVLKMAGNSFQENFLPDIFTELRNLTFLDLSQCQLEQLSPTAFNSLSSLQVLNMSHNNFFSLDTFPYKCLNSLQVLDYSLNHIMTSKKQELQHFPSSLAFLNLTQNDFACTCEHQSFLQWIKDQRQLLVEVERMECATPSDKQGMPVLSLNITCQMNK

B1: PorinB from Neisseria meningitidis (ligand)
chain: DVTLYGTIKAGVETSRSVFHQNGQVTEVTTATGIVDLGSKIGFKGQEDLGNGLKAIWQVEQKASIAGTDSGWGNRQSFIGLKGGFGKLRVGRLNSVLKDTGDINPWDSKSDYLGVNKIAEPEARLISVRYDSPEFAGLSGSVQYALNDNAGRHNSESYHAGFNYKNGGFFVQYGGAYKRHHQVQEGLNIEKYQIHRLVSGYDNDALYASVAVQQQDAKLTDASNSHNSQTEVAATLAYRFGNVTPRVSYAHGFKGLVDDADIGNEYDQVVVGAEYDFSKRTSALVSAGWLQEGKGENKFVATAGGVGLRHKF
modifications: biotinylated in the binding assays (sites not given); not stated as biotinylated in the reporter assay
notes: also called biotinylated PorinB; biotinylated Porin
Regarding B1, the binding result is listed as “no binding”.
